Assay results from article PMC4260453 (Molecular microbiology, 2011).

T1: DnaE (Bacillus subtilis, UniProt O34623 1-1115)
T1 sequence: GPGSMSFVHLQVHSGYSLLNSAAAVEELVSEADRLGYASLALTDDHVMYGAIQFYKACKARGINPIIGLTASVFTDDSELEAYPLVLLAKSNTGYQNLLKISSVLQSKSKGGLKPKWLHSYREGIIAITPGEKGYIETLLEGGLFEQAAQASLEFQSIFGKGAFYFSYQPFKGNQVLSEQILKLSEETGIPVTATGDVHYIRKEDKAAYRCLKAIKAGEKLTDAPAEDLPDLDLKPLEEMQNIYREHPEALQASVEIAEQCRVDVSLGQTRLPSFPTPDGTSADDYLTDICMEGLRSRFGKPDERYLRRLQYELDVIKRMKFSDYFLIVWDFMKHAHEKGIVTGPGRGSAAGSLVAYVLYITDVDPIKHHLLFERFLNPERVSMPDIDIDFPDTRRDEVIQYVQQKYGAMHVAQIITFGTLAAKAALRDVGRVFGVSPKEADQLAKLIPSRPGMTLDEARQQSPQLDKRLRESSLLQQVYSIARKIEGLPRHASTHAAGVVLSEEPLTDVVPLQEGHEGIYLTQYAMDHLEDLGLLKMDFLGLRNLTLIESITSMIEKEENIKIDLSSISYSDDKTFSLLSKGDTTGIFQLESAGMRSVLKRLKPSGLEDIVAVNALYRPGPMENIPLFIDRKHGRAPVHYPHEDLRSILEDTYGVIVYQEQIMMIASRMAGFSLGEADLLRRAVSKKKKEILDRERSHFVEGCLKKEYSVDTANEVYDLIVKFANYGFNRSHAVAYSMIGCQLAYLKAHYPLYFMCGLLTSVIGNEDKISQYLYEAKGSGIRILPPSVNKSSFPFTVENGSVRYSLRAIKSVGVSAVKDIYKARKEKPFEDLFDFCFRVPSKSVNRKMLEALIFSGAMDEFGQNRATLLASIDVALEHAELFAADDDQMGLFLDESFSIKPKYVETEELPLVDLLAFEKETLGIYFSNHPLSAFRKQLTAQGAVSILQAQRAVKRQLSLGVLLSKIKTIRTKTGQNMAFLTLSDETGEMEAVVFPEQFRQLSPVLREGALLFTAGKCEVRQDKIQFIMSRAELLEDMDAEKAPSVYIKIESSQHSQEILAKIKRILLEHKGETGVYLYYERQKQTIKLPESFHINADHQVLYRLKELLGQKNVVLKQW

B1: MutS (natural protein, Bacillus subtilis)
chain: GPGSMAGYTPMIQQYLKIKAEHQDAFLFFRLGDFYEMFFEDAKKASQELEITLTSRDGGAAEKIPMCGVPYHSASAYIEQLIKKGYKVAICEQTEDPKAAKGVVKREVVQLITPGTVMDGKGIHESENNFIASVSACSNGYGLALSDLTTGENLAVLIERLEDVISEIYSVGAREIVVSGSLDADTVAQLRERCGATISIEDGETDEHVTIIEHLNNEDITKTFLRLYTYLKRTQKRSLDHLQPVQVYELEEAMKIDLYSKRNLELTETIRSKNKKGSLLWLLDETKTAMGGRLLKQWIDRPLIRVNQIEERQEMVETLMSHFFEREDLRERLKEVYDLERLAGRVAFGNVNARDLIQLKESLKQVPGIKQLVASLAHDKAKERAKRIDPCGDVLELLEEALYENPPLSVKEGNLIKDGYNQKLDEYRDASRNGKDWIARLEQQEREYTGIRSLKVGFNKVFGYYIEVTKANLHLLEEGRYERKQTLTNAERYITPELKEKEALILEAENNICELEYELFTELREKVKQYIPRLQQLAKQMSELDALQCFATISENRHYTKPEFSKDEVEVIEGRHPVVEKVMDSQEYVPNNCMMGDNRQMLLITGPNMSGKSTYMRQIALISIMAQIGCFVPAKKAVLPIFDQIFTRIGAADDLISGQSTFMVEMLEAKNAIVNATKNSLILFDEIGRGTSTYDGMALAQAIIEYVHDHIGAKTLFSTHYHELTVLEDKLPQLKNVHVRAEEYNGTVVFLHQIKEGAADKSYGIHVAQLAELPGDLIARAQDILKELEHSGNKPEVPVQKPQVKEEPAQLSFFDEAEKPAETPKLSKKEKQVIDAFKSLNILDMTPLEAMNEMYKLQKKLH
B2: His6-SSB (natural protein, Bacillus subtilis, UniProt P37455 1-172, looked up)
chain: MLNRVVLVGRLTKDPELRYTPNGAAVATFTLAVNRTFTNQSGEREADFINCVTWRRQAENVANFLKKGSLAGVDGRLQTRNYENQQGQRVFVTEVQAESVQFLEPKNGGGSGSGGYNEGNSGGGQYFGGGQNDNPFGGNQNNQRRNQGNSFNDDPFANDGKPIDISDDDLPF

Target: T1, DnaE
Test: far-Western, overlay or dot blot

Row | Binder | binding result
1 | B1 | binds
2 | B2 | binds
